Measurements reported in patent publication US20250277003A1 (OSAKA UNIVERSITY, published 2025).

Experiments:
BtCoV BM48-31 spike RBD = BtCoV BM48-31 spike RBD (BtCoV BM48-31); test: bead flow cytometry
WIV1-CoV spike RBD = WIV1-CoV spike RBD (WIV1-CoV); test: bead flow cytometry

B1: mAb CR3022 (antibody, V domains shown)
VH: QMQLVQSGTEVKKPGESLKISCKGSGYGFITYWIGWVRQMPGKGLEWMGIIYPGDSETRYSPSFQGQVTISADKSINTAYLQWSSLKASDTAIYYCAGGSGISTPMDVWGQGTTVTVSS
VL: not shown
gMFI (BtCoV BM48-31 spike RBD): 72
gMFI (WIV1-CoV spike RBD): 22300
